Test results from article PMC7039627.
pKd: −log10 of the molar value.

Biological target: extracellular domain of hCTLA-4 (Homo sapiens) (UniProt P16410)
Assay: SPR

Sequence of UniProt P16410 (P16410 36-161): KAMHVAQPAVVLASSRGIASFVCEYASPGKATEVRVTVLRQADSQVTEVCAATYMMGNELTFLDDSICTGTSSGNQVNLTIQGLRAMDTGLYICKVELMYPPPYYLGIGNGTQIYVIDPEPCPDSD

pKd: 8.43
Substance: Ipilimumab (antibody)
